Measurements taken from US20240043507A1 (RQ BIOTECHNOLOGY, published 2024).
Several values for one entry are separate records, joined by “and”; a condition that tells them apart may be missing. Identical values can stand only once.

B1: antibody 150 (antibody, V domains shown)
VH: QVQLVESGGGLIQPGGSLRLSCAASGVTVSSNYMSWVRQAPGKGLEWVSIIYSGGTTYYADSVKGRFTISRDSSMNTLYLQMNSLRAEDTAVYYCARDLMVYGIDVWGQGTTVTVSS
VL: EIVMTQSPSSLSASVGDRVTITCRASQGISSYLAWYQQKPGKAPKLLIYAASTLQSGVPSRFSGSGSGTDFTLTISSLQPEDFATYYCQQLDSYPPGYTFGQGTKVDIK
B2: antibody 158 (antibody, V domains shown)
VH: EVQLLESGGDLIQPGGSLRLSCAASGVTVSSNYMSWVRQAPGKGLEWVSIIYPGGSTFYADSVKGRFTISRDNSKNTLYLQMHSLRAEDTAVYYCARDLGSGDMDVWGKGTTVTVSS
VL: DIVMTQSPSFLSASVGDRVTITCRASQGISSYLAWYQQKPGKAPKLLIQAASTLQSGVPSRFSGSGSGTEFTLTISSLQPEDFATYYCQQLNSYRYTFGQGTKVEIK
notes: also called mAb 158
B3: antibody 253H165L (antibody, V domains shown)
VH: not shown
VL: DIVMTQSPGTLSLSPGERATLSCRASQSVRSSYLAWYQQKPGQAPRLLIYGASRRGTGIPDRFSGSGSGTDFTLTISRLEPEDFAVYYCQQYGSSPWTFGQGTKVEIK
B4: antibody 165 (antibody, V domains shown)
VH: QVQLVQSGPEVKKPGTSVKVSCKASGFTFTSSAVQWVRQARGQRLEWIGWIVVGSGNTNYAQKFQESVTITRDMSTSTAYMELSSLRSEDTAVYYCAAPHCIGGSCHDAFDIWGQGTMVTVSS
VL: DIVMTQSPGTLSLSPGERATLSCRASQSVRSSYLAWYQQKPGQAPRLLIYGASRRGTGIPDRFSGSGSGTDFTLTISRLEPEDFAVYYCQQYGSSPWTFGQGTKVEIK
notes: also called mAb 165
B5: antibody 170 (antibody, V domains shown)
VH: QVQLVESGAEVKKPGESLKISCKGSGYSFTSYWIVWVRQMPGKGLEWMGIIYPGDSDTKYSPSFQGQVSISADKPISTAYLQWSRLKASDTAMYYCARLGNWLVDYWGQGTLVTVSS
VL: DIVMTQSPLSLSVTPGQPASISCKSSQSLLHSDGKTYLYWYLQKPGQPPQLLMYEVSNRFSGVPDRFSGSGSGTDFTLKISRVESEDVGVYYCMQSIQLPRGITFGQGTRLEIK
B6: antibody 175 (antibody, V domains shown)
VH: EVQLVESGGGLIQPGGSLRLSCAASGLTVSRNYMSWVRQAPGKGLEWVSLIYSGGSTYYADSVKGRFTISRDNSKNTLYLQMNSLRAEDTAVYYCARDLRGEVWGQGTMVTVSS
VL: not shown
notes: also called mAb 175
B7: antibody 222 (antibody, V domains shown)
VH: EVQLVESGGGLIQPGGSLRLSCAASGLTVSSNYMSWVRQAPGKGLEWVSVIYSGGSTFYADSVKGRFTISRDNSKNTLYLQMNSLGAEDTAVYYCARGEGSPGNWFDPWGQGTLVTVSS
VL: DVVMTQSPGTLSLSPGERATLSCRASQSVPSSYLAWYQQKPGQAPRLLIYGASTRATGIPDRFSGSGSGTDFTLTISRLEPEDFAVYYCQHYDTSPRFGGGTKVDIK
B8: antibody 269 (antibody, V domains shown)
VH: QVQLVESGGGLIQPGGSLRLSCAASGLTVNRNYMSWIRQAPGKGLEWVSVIYSGGSTFYADSVKGRFTISRDNSKNTLSLQMNSLRAEDTAIYYCARDFYEGSFDIWGQGTMVTVSS
VL: AIQLTQSPSFLSASIGDRVTITCRASQGISSYLAWYQQKPGKAPKLLIYAASTLQSGVPSRFSGSGSGTEFTLTISSLQPEDFASYYCQQLNSYPAPVFGPGTKVDIK
notes: also called mAb 269
B9: antibody 278 (antibody, V domains shown)
VH: QVQLVQSGAEVKKPGASVKVSCKASGYIFIRYGISWVRQAPGQGLEWMGWISANNGYTNYAQKLQGRVTMTTDTSTSTAYMELRSLRSDDTAVYYCARDGGILTGYLDYFDHWGQGTLVTVSS
VL: DIQMTQSPSSLSASVGDRLTITCRASQSIASYLNWYQQKPGKAPKLLIYAASSLQSGVPSRFSGSGSGTDFTLTISSLQPEDFATYHCQQSYSTLGITFGPGTKVDIK
notes: also called mAb 278
B10: antibody 281 (antibody, V domains shown)
VH: QVQLVESGGGLVQPGGSLRLSCAASGFPFSIYWMSWVRQAPGKGLEWVANIKQDGSEKYYVDSVKGRFTISRDNAKNSLYLHMNSLRGEDTAVYYCASRYYDFRPEAWFDYWGQGTLVTVSS
VL: not shown
B11: antibody 316 (antibody, V domains shown)
VH: not shown
VL: QAVLTQPPSASGSPGQSVTISCTGTSSDVGGYNYVSWYQQHPGKAPKLMIYEVSKRPSGVPDRFSGSKSGNTASLTVSGLQAEDEADYYCSSYAGSNHWVFGGGTKLTVL
B12: antibody 318 (antibody, V domains shown)
VH: QVQLVQSGPEVKKPGTSVKVSCKASGFTLTSSAMQWVRQARGQRLEWIGWIVVGSGNTNYAQKFQERVTITRDMSTSTAYMELSSLRSEDTAVYYCAAGRGYNSDFDYWGQGTLVTVSS
VL: AIRMTQSPGTLSLSPGERATLSCRASQSVSSSYLAWYQQRPGQAPRLLIYGTSSRATGIPDRFSGSGSGTDFTLTISRLEPEDFAVYYCQQYGYSVYTFGQGTKVDIK
notes: also called mAb 318
B13: antibody 398 (antibody, V domains shown)
VH: QVQLVESGGGLVQPGGSLRLSCAASGFTVSSNYMTWVRQAPGKGLEWVSVIYSGGSTYYADSVKGRFTISRDNSKNTLYLQMNSLRADDTAVYYCARDSTADYDFWSGYYVGAFHIWGQGTMVTVSS
VL: QTVLTQPASVSGSPGQSITISCTGTSSDVGGYNYVSWYQQHPGKAPKLMIYEVTKRPSGVPDRFSGSKSGNTASLTVSGLQAEDEADYYCSSYAGSNNWVFGGGTKLTVL
notes: also called mAb 398
B14: Fab of chimeric antibody 253H165L (Fab, V domains shown)
VH: not shown
VL: DIVMTQSPGTLSLSPGERATLSCRASQSVRSSYLAWYQQKPGQAPRLLIYGASRRGTGIPDRFSGSGSGTDFTLTISRLEPEDFAVYYCQQYGSSPWTFGQGTKVEIK
notes: also called 253H165L Fab
B15: chimeric antibody 253H165L, full-length IgG (antibody, V domains shown)
VH: not shown
VL: DIVMTQSPGTLSLSPGERATLSCRASQSVRSSYLAWYQQKPGQAPRLLIYGASRRGTGIPDRFSGSGSGTDFTLTISRLEPEDFAVYYCQQYGSSPWTFGQGTKVEIK
notes: also called 253H165L IgG
B16: Fab of antibody 159 (Fab, V domains shown)
VH: EVQLVESGGGVVQPGRSLRLSCAASGFTFSSYGMHWVRQAPGKGLEWVALISYDGGNRYYADSVKGRFTISRDNSKNTLYLQMNRLRAEDTAMYYCAKDRDDGWDWYYFMDVWGKGTTVTVSS
VL: DIQLTQSPGTLSLSPGERATLSCRASQSISGNYLAWYQHKPGQAPRLLIYGASTRATGIPDRFSGSGSGTDFTLTISRLEPEDFAVYYCQQYGSSYTFGQGTKVEIK
B17: Fab of antibody 58 (Fab, V domains shown)
VH: QVQLVESGGGLVQPGRSLRLSCAASGFTFDDYAMHWVRQPPGKGLEWVSGVSWNSGTIGYADSVKGRFIISRDNAKNSLYLQMNSLKAEDTALYYCAREVGGTFGVLISREGGLDYWGQGTLVTVSS
VL: SYELTQPPSVSVAPGQTARITCGGNTIGSKSVHWYQQRPGQAPVLVVYDDSDRPSGIPERFSGSNSGNTATLTISRVEAGDEADYYCQVWDSSSDRVVFGGGTKLTVL
B18: Fab of antibody 175 (Fab, V domains shown)
VH: EVQLVESGGGLIQPGGSLRLSCAASGLTVSRNYMSWVRQAPGKGLEWVSLIYSGGSTYYADSVKGRFTISRDNSKNTLYLQMNSLRAEDTAVYYCARDLRGEVWGQGTMVTVSS
VL: not shown

What was measured:
[1] = target: spike protein of SARS-CoV-2 strain Victoria (SARS-CoV-2/human/AUS/VIC01/2020) (SARS-CoV-2, UniProt P0DTC2 14-1273); test: cell-based or functional assay
[2] = target: spike protein of SARS-CoV-2 strain B.1.351 (SARS-CoV-2, UniProt P0DTC2 14-1273); test: cell-based or functional assay
[3] = target: spike protein of SARS-CoV-2 strain P.1 (SARS-CoV-2, UniProt P0DTC2 14-1273); test: cell-based or functional assay
[4] = target: spike protein of SARS-CoV-2 strain B.1.1.7 (SARS-CoV-2, UniProt P0DTC2 14-1273); test: cell-based or functional assay
[5] = target: T1, SARS-CoV-2 spike protein on authentic virus, strain SARS-CoV-2/human/AUS/VIC01/2020 (Victoria) (SARS-CoV-2, UniProt P0DTC2 14-1273); test: cell-based or functional assay
[6] = target: T1, SARS-CoV-2 spike protein on authentic …; test: whole-virus capture ELISA, half-maximal binding
[7] = target: T1, SARS-CoV-2 spike protein on authentic …; test: calculated from whole-virus ELISA binding and FRNT50
[8] = target: T2, SARS-CoV-2 receptor binding domain with N501Y (SARS-CoV-2, UniProt P0DTC2 330-532); test: BLI, RBD immobilised on AR2G biosensor, 1:1 fit
T2 construct: range 330-532; also called RBD-N501Y; RBD N501Y

| Binder | IC50 (FRNT neutralisation) [1] | IC50 (FRNT neutralisation) [2] | IC50 (FRNT neutralisation) [3] | IC50 (FRNT neutralisation) [4] | further results |
| --- | --- | --- | --- | --- | --- |
| B1 | 0.012 µg/mL | 0.35 µg/mL | 0.04 µg/mL | 0.139 µg/mL | FRNT50 ratio B.1.351/Victoria [2]: 30; FRNT50 ratio P.1/Victoria [3]: 3.4; FRNT50 ratio B.1.1.7/Victoria [4]: 12 |
| B2 | 0.031 µg/mL | > 10 µg/mL | > 10 µg/mL | 0.254 µg/mL | – |
| B3 | 0.003 µg/mL | 0.013 µg/mL | 0.019 µg/mL | 0.006 µg/mL | – |
| B4 | 0.034 µg/mL | 0.054 µg/mL | 0.241 µg/mL | 0.212 µg/mL | – |
| B5 | 0.025 µg/mL | > 10 µg/mL | > 10 µg/mL | 0.105 µg/mL | FRNT50 ratio B.1.351/Victoria [2]: > 402; FRNT50 ratio P.1/Victoria [3]: > 402; FRNT50 ratio B.1.1.7/Victoria [4]: 4.2 |
| B6 | 0.026 µg/mL | > 10 µg/mL | 3.88 µg/mL | 0.575 µg/mL | – |
| B7 | 0.019 µg/mL and 0.017 µg/mL | 0.017 µg/mL and 0.016 µg/mL | 0.008 µg/mL and 0.009 µg/mL | 0.014 µg/mL and 0.011 µg/mL | – |
| B8 | 0.03 µg/mL | > 10 µg/mL | > 10 µg/mL | > 10 µg/mL | – |
| B9 | 0.014 µg/mL | 0.16 µg/mL | 0.245 µg/mL | 0.307 µg/mL | – |
| B10 | 0.005 µg/mL | > 10 µg/mL | > 10 µg/mL | 0.012 µg/mL | – |
| B11 | 0.018 µg/mL | > 10 µg/mL | > 10 µg/mL | 0.024 µg/mL | – |
| B12 | 0.029 µg/mL | 0.019 µg/mL | 0.083 µg/mL | 0.185 µg/mL | – |
| B13 | 0.091 µg/mL | > 10 µg/mL | > 10 µg/mL | 0.18 µg/mL | – |
| B14 | – | – | – | – | Neutralisation IC50 [5]: 5.22 nM; Kd [6]: 5.02 nM; % Occupancy [7]: 51.3% |
| B15 | – | – | – | – | Neutralisation IC50 [5]: 0.03 nM; Kd [6]: 0.09 nM; % Occupancy [7]: 24.5% |
| B16 | – | – | – | – | Kd [6]: 0.29 nM |
| B17 | – | – | – | – | Kd [8]: 0.55 nM |
| B18 | – | – | – | – | Kd [8]: 2.54 nM |
